For the series, the system named is Escherichia coli TOP10. Kind of series: shrunken log2 fold change of peptide-encoding DNA abundance (4.5 h post-induction vs induction); higher = less antimicrobial activity (less host growth inhibition). As to conditions: time post-induction: 4.5 h; library: site-saturation at positions 5, 18, 19, 20.

125 sequences from the supplement of paper PMC9112550, “Optimization of the antimicrobial peptide Bac7 by deep mutational scanning” (BMC Biology, 2022) can be followed below.
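Also: peptides expressed intracellularly from a pBAD plasmid library in pooled LB shake-flask culture, induced with 0.3% L-arabinose, DNA abundance read by NGS, three biological replicates, DESeq2 with apeglm shrinkage.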

In the case of RRIRCRPPRLPRPRPRPPRWPRP, the “shrunken log2 fold change” value was determined as 1.16.
As for RRIRSRPPRLPRPRPRPRWRPRP, the “shrunken log2 fold change” value turned out to be 0.375.
The same measure for RRIRERPPRLPRPRPRPMDSPRP: -0.0933; for RRIRNRPPRLPRPRPRPAEAPRP: 0.057; for RRIRWRPPRLPRPRPRPYQWPRP: -0.0641.
The same measure for RRIRQRPPRLPRPRPRPFRYPRP: -0.245; for RRIRPRPPRLPRPRPRPLDQPRP: 0.0885.
The same measure for RRIRGRPPRLPRPRPRPKRNPRP: 0.624; for RRIRIRPPRLPRPRPRPYVYPRP: -0.144; for RRIRHRPPRLPRPRPRPELEPRP: -0.0141.
With RRIRKRPPRLPRPRPRPMKHPRP, the “shrunken log2 fold change” value was -0.156.
The same measure for RRIRDRPPRLPRPRPRPHFHPRP: -0.0477.
The same measure for RRIRRRPPRLPRPRPRPEDKPRP: 0.103.
Turning to RRIRVRPPRLPRPRPRPRAPPRP, the “shrunken log2 fold change” value was found to be 0.831.
The same measure for RRIRMRPPRLPRPRPRPVPNPRP: 0.12; for RRIRFRPPRLPRPRPRPNIIPRP: -0.706; for RRIRDRPPRLPRPRPRPLHKPRP: 0.0824.
The same measure for RRIRLRPPRLPRPRPRPIMEPRP: -0.193; for RRIRKRPPRLPRPRPRPSPRPRP: 1.04.
As to RRIRHRPPRLPRPRPRPKGNPRP, the “shrunken log2 fold change” value was -0.124.
On to RRIRQRPPRLPRPRPRPIFIPRP, for which the “shrunken log2 fold change” value is -0.472.
As for RRIRDRPPRLPRPRPRPDSWPRP, the “shrunken log2 fold change” value was found to be 0.0194.
The same measure for RRIRWRPPRLPRPRPRPQYDPRP: -0.212; for RRIRNRPPRLPRPRPRPICYPRP: -0.818; for RRIRFRPPRLPRPRPRPAKFPRP: -0.265.
The same measure for RRIRYRPPRLPRPRPRPENKPRP: -0.725; for RRIRGRPPRLPRPRPRPDWFPRP: 0.448.
The same measure for RRIRTRPPRLPRPRPRPLQYPRP: -0.0374; for RRIRIRPPRLPRPRPRPAQKPRP: -0.00244.
For the sequence RRIRSRPPRLPRPRPRPASWPRP, the “shrunken log2 fold change” value amounted to 0.363.
The same measure for RRIRWRPPRLPRPRPRPCRAPRP: 0.217; for RRIRARPPRLPRPRPRPRPEPRP: 0.686; for RRIRQRPPRLPRPRPRPQPAPRP: 0.218.
RRIRSRPPRLPRPRPRPMNFPRP: the “shrunken log2 fold change” value is -0.0407.
Take RRIRRRPPRLPRPRPRPYRMPRP: the “shrunken log2 fold change” value is -0.292.
The same measure for RRIRVRPPRLPRPRPRPMQHPRP: 0.0443; for RRIRMRPPRLPRPRPRPMNHPRP: -0.129.
As for RRIRNRPPRLPRPRPRPVYYPRP, the “shrunken log2 fold change” value was -0.562.
As for RRIRWRPPRLPRPRPRPGSSPRP, the “shrunken log2 fold change” value is -0.0655.
The same measure for RRIRWRPPRLPRPRPRPHETPRP: 0.126.
The same measure for RRIRHRPPRLPRPRPRPLNMPRP: -1.26; for RRIRERPPRLPRPRPRPCEDPRP: 0.0101.
The same measure for RRIRERPPRLPRPRPRPRMNPRP: 0.0757; for RRIRERPPRLPRPRPRPQDNPRP: -0.0327; for RRIRQRPPRLPRPRPRPNNRPRP: -0.686.
RRIRERPPRLPRPRPRPADSPRP: the “shrunken log2 fold change” value was -0.157.
The same measure for RRIRMRPPRLPRPRPRPRERPRP: 0.623; for RRIRMRPPRLPRPRPRPNTNPRP: 0.128; for RRIRERPPRLPRPRPRPWDVPRP: 0.0649.
The same measure for RRIRERPPRLPRPRPRPYVKPRP: 0.04.
The same measure for RRIRQRPPRLPRPRPRPMFRPRP: -0.0146.
For the sequence RRIRDRPPRLPRPRPRPASFPRP, the “shrunken log2 fold change” value was found to be 0.136.
The same measure for RRIRMRPPRLPRPRPRPWSIPRP: -0.0237; for RRIRKRPPRLPRPRPRPNNQPRP: -0.219; for RRIRHRPPRLPRPRPRPTRMPRP: 0.237.
The same measure for RRIRGRPPRLPRPRPRPPKRPRP: 0.701; for RRIRGRPPRLPRPRPRPQGWPRP: 1.04.
The same measure for RRIRPRPPRLPRPRPRPSAGPRP: 0.243; for RRIRCRPPRLPRPRPRPCIPPRP: -0.01.
Take RRIRVRPPRLPRPRPRPSSVPRP: the “shrunken log2 fold change” value is -0.529.
The same measure for RRIRVRPPRLPRPRPRPKITPRP: -0.524; for RRIRERPPRLPRPRPRPPCEPRP: -0.075.
The same measure for RRIRQRPPRLPRPRPRPSILPRP: -0.177.
The same measure for RRIRPRPPRLPRPRPRPYYGPRP: -0.271; for RRIRIRPPRLPRPRPRPMGHPRP: -0.174.
Regarding RRIRLRPPRLPRPRPRPWIKPRP, the “shrunken log2 fold change” value was -0.187.
The same measure for RRIRKRPPRLPRPRPRPWVRPRP: -0.0489; for RRIRNRPPRLPRPRPRPQVYPRP: -0.0412.
In the case of RRIRDRPPRLPRPRPRPPFNPRP, the “shrunken log2 fold change” value was -0.217.
The same measure for RRIRDRPPRLPRPRPRPNAMPRP: -0.0158; for RRIRVRPPRLPRPRPRPGEIPRP: 0.0835; for RRIRARPPRLPRPRPRPKLRPRP: 0.178.
The same measure for RRIRRRPPRLPRPRPRPKCWPRP: 0.307.
The same measure for RRIRPRPPRLPRPRPRPLAGPRP: 0.3; for RRIRGRPPRLPRPRPRPDLLPRP: 1.51; for RRIRYRPPRLPRPRPRPHPNPRP: -0.758.
For RRIRARPPRLPRPRPRPRTDPRP, the “shrunken log2 fold change” value came to 0.465.
With RRIRTRPPRLPRPRPRPYCDPRP, the “shrunken log2 fold change” value was -0.512.
The same measure for RRIRCRPPRLPRPRPRPVIDPRP: 0.136; for RRIRARPPRLPRPRPRPLIFPRP: 0.000397; for RRIRPRPPRLPRPRPRPKHLPRP: -0.355.
The same measure for RRIRARPPRLPRPRPRPEHIPRP: -0.185; for RRIRGRPPRLPRPRPRPHGVPRP: 0.00437.
The same measure for RRIRQRPPRLPRPRPRPETLPRP: -0.0597.
As to RRIRDRPPRLPRPRPRPDWYPRP, the “shrunken log2 fold change” value was -0.0602.
The same measure for RRIRGRPPRLPRPRPRPRQRPRP: 0.815.
The same measure for RRIRWRPPRLPRPRPRPYKGPRP: -0.0487; for RRIRYRPPRLPRPRPRPFYAPRP: -0.642; for RRIRSRPPRLPRPRPRPPCGPRP: 0.182.
The same measure for RRIRDRPPRLPRPRPRPPVFPRP: 1.59.
As to RRIRFRPPRLPRPRPRPNHMPRP, the “shrunken log2 fold change” value is -0.567.
The same measure for RRIRVRPPRLPRPRPRPLIIPRP: -0.445; for RRIRERPPRLPRPRPRPIYNPRP: -0.85; for RRIRFRPPRLPRPRPRPMPYPRP: -0.218.
The same measure for RRIRFRPPRLPRPRPRPGTNPRP: -0.254; for RRIRIRPPRLPRPRPRPPSYPRP: -0.336.
The same measure for RRIRMRPPRLPRPRPRPQLIPRP: -0.0368; for RRIRQRPPRLPRPRPRPQRDPRP: 0.0969; for RRIRQRPPRLPRPRPRPQVQPRP: -0.00173.
RRIRSRPPRLPRPRPRPKNAPRP: the “shrunken log2 fold change” value worked out at 0.196.
On to RRIRARPPRLPRPRPRPCCTPRP, for which the “shrunken log2 fold change” value was determined as 0.485.
The same measure for RRIRIRPPRLPRPRPRPDHKPRP: -0.413; for RRIRLRPPRLPRPRPRPKMEPRP: -0.0157.
The same measure for RRIRIRPPRLPRPRPRPGQHPRP: -0.0183.
Regarding RRIRPRPPRLPRPRPRPLSSPRP, the “shrunken log2 fold change” value came to 0.00895.
The same measure for RRIRKRPPRLPRPRPRPKYTPRP: -0.113; for RRIRIRPPRLPRPRPRPCVIPRP: -0.0683.
The same measure for RRIRGRPPRLPRPRPRPFHEPRP: -0.537; for RRIRRRPPRLPRPRPRPQFTPRP: -0.0485; for RRIRRRPPRLPRPRPRPVYSPRP: -0.139.
Regarding RRIRLRPPRLPRPRPRPMCCPRP, the “shrunken log2 fold change” value was -0.394.
Turning to RRIRTRPPRLPRPRPRPDSPPRP, the “shrunken log2 fold change” value is -0.549.
The same measure for RRIRRRPPRLPRPRPRPQEHPRP: 1.34; for RRIRPRPPRLPRPRPRPFLNPRP: -0.622; for RRIRRRPPRLPRPRPRPLQSPRP: 0.242.
The same measure for RRIRMRPPRLPRPRPRPLHDPRP: 0.487; for RRIRQRPPRLPRPRPRPYRSPRP: -0.0119; for RRIRMRPPRLPRPRPRPPSLPRP: 0.619.
The same measure for RRIRARPPRLPRPRPRPWKWPRP: -0.163; for RRIRGRPPRLPRPRPRPMIKPRP: 2.22; for RRIRARPPRLPRPRPRPNMIPRP: -0.194.
Take RRIRMRPPRLPRPRPRPKWIPRP: the “shrunken log2 fold change” value was -0.124.
The same measure for RRIRNRPPRLPRPRPRPTLNPRP: -0.105; for RRIRWRPPRLPRPRPRPVDVPRP: -0.0135.
The same measure for RRIRNRPPRLPRPRPRPTSCPRP: -0.173.
